The record followed here is patent US20090098175A1 (AFFINERGY, published 2009).

One assay has as its target TGF-β1 (UniProt P01137 279-390). Briefly: plate assay: biotinylated peptide on streptavidin plate, growth factor titrated, antibody/AP detection. As to the method:
(§1) Briefly, peptides comprising an amino acid sequence of each of SEQ ID NOs: 1-3 were biotinylated to facilitate immobilization on streptavidin-coated 96-well plates. The microtiter plates were coated with streptavidin by adding 50 μl of a 10 μg/ml streptavidin solution in 0.1 M NaHCO₃, and incubating the plates for at least 3 hours. The plate wells were blocked by adding 150 μl of a 1% BSA solution in 0.1 NaHCO₃, and the plates were stored at 4° C. until needed. Before use, the streptavidin plates were washed extensively in buffer-T. Peptides were then added at 20 pmol per well in 100 μl of high-salt buffer-T (containing 500 mM NaCl), and then incubated for 1 hour at room temperature with shaking. 150 μl of 0.5 mM biotin in H₂O was added to block the remaining streptavidin sites, and plates were incubated for an additional hour. Plates were then washed with TBS-T to remove the excess biotin and peptide. Serial dilutions of growth factor (including fibrous connective tissue-inducing growth factors GDF-7, GDF-5, BMP-2, and BMP-6,; and growth factors other than fibrous connective tissue-inducing growth factors, such as BMP-5, TGF-β, TGF-β3, or PDGF-BB) in high-salt buffer-T were added (100 μl) to each well, representing a range of concentrations between 0.01 nM and 100 nM. Plates were incubated for 1 hour at room temperature with shaking prior to washing several times with TBS-T. Growth factors were then detected using 100 μl of the appropriate dilutions of primary antibodies specific for the growth factor being detected. After washing with buffer-T, 100 μl of alkaline phosphatase-conjugated secondary antibody was added to each well and incubated at room temperature for 45 minutes. Excess secondary antibody was removed by repeated washes with buffer-T, and the amount of alkaline phosphatase remaining in the well was detected using a pNPP (para-nitrophenylphos-phate) colorimetric enzymatic assay. The amount of growth factor captured by the peptides was determined by measuring the absorbance at 405 nm of the colored product of the alkaline phosphatase reaction.

The target of the next assay is T1, TGF-β3 (UniProt P10600 301-412).
T1 sequence (looked up): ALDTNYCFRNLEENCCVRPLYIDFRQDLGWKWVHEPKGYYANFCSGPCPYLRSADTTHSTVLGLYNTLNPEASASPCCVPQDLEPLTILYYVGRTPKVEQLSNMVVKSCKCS
The description is as above. The protocol: as §1

The target in the next assay is T2, PDGF-BB (UniProt P01127 82-190).
T2 construct: also called platelet-derived growth factor
T2 sequence (P01127 82-190 limits assumed): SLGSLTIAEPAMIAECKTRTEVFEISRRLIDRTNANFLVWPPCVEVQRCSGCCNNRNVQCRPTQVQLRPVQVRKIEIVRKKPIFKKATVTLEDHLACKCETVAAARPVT
Described as above. The protocol:
as §1

The next assay has as its target T3, BMP-2 (UniProt P12643 283-396).
T3 construct: also called bone morphogenetic protein 2
The experiment in a line: plate assay: biotinylated peptide on streptavidin plate, growth factor titrated 0.01-100 nM, antibody/AP detection. As to the method: as §1

Assay [1] has as its target T4, GDF-7 (UniProt Q7Z4P5 322-450, limits assumed).
T4 construct: also called BMP-12; growth and differentiation factor 7
T4 sequence (looked up): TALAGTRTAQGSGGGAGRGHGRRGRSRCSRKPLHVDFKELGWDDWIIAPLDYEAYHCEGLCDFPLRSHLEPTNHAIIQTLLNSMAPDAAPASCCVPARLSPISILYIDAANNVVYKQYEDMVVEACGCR
The description is as above. The protocol:
as §1

The next assay deals with T5, BMP-5 (UniProt P22003 317-454, limits assumed).
T5 construct: also called bone morphogenetic protein 5
T5 sequence (looked up): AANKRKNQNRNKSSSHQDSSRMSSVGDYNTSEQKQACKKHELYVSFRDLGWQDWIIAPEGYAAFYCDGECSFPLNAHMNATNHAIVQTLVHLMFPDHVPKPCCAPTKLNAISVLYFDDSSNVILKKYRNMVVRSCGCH
The description is as above. The protocol: as §1

The next assay has as its target T6, BMP-6 (UniProt P22004 382-513, limits assumed).
T6 construct: also called bone morphogenetic protein 6
T6 sequence (looked up): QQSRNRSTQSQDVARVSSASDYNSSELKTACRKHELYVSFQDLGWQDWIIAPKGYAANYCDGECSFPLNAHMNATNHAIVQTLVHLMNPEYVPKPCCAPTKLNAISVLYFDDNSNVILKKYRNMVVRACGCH
The description is as above. The protocol: as §1

The target in the next assay is T7, GDF-5 (UniProt P43026 382-501).
T7 construct: also called BMP-14
T7 sequence (looked up): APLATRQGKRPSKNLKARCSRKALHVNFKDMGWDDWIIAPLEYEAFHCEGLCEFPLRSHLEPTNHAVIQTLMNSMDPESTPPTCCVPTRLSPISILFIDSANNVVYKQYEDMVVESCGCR
The description is as above. As to the method:
as §1

Assay [2] concerns the target T8, GDF-7 (UniProt Q7Z4P5 322-450).
T8 chain: T4 sequence (looked up)
The experiment in a line: GDF-7 capture on sutures.

Where no end group is shown, it is not given here. [ ]: non-standard residue; d: D form. The star is where a group is joined. Biotin = O=C1N[C@H]2[C@H](CS[C@H]2CCCCC(=O)*)N1

T3 sequence (P12643 283-396 limits assumed): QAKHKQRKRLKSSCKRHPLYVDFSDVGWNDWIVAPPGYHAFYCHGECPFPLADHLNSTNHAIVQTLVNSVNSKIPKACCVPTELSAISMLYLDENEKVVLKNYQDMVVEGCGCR
Chain of TGF-β1 (P01137 279-390 limits assumed): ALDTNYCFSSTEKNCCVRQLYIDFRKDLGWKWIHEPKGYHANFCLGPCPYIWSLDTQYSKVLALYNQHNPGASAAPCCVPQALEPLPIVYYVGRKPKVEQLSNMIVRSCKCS

As usually defined, the EC50 is the concentration needed to bring the measured effect to its halfway point. The low end stands for higher potency in that assay, the high end for lower potency in that assay. As for [code s][code s]GPREIWDSLVGVVNPGW[code s][code r] (also: biotinylated, site not given here) [SEQ ID NO 1], the binding result in the assay with TGF-β1, with TGF-β3 and with PDGF-BB was “no binding (tested: growth factor 0.01 nM to 100 nM)” in each case. Further, the EC50 with BMP-2 was less than 10 nM; with GDF-7 [1], less than 1 nM; in the assay with BMP-5, less than 100 nM; in the assay with BMP-6 it was less than 10 nM; in the assay with GDF-5, less than 10 nM.

B1: 780P (peptide)
chain 1: SWWGFWNGSAAPVWSR
chain 2: SSGGVGGWALFETLRGKEVSR
chain 3: GSSGK(Biotin)
modifications: not fully specified (some residues, C-terminus); also: chains 1-3 joined as one linear peptide (67-GSSG-2-GSSGK)
As for B1, in the assay with GDF-7 [2], the EC50 was greater than 100 nM.

For the molecule [code s][code s]VAEWALRSWEGMRVGEA[code s][code r] (also: biotinylated, site not given here) [SEQ ID NO 3], the binding result in the assay with TGF-β1, with TGF-β3 and in the assay with PDGF-BB was “no binding (tested: growth factor 0.01 nM to 100 nM)” each time. The EC50 was less than 10 nM with BMP-2; less than 1 nM in the assay with GDF-7 [1]; less than 100 nM with BMP-5; less than 10 nM with BMP-6; less than 10 nM with GDF-5.

B2: SEQ ID NO 2 (peptide)
peptide: SSGGVGGWALFETLRGKEVSR
modifications: not fully specified (residues 1, 2, 20, 21); printed as ssGGVGGWALFETLRGKEVsr; also: biotinylated, site not given here
As for B2, the binding result with TGF-β1, in the assay with TGF-β3 and with PDGF-BB was “no binding (tested: growth factor 0.01 nM to 100 nM)” in each case. The EC50 with BMP-2 is less than 10 nM; in the assay with GDF-7 [1], less than 1 nM; with BMP-5 it was less than 100 nM; with BMP-6, less than 10 nM; with GDF-5 it was less than 10 nM.
